Paper PMC4864278 (The EMBO Journal, 2016)

Assays:
[1] = biological target: the molecule itself; assay: SAXS; batch SAXS, Diamond Light Source beamline B21; at least three dilutions of each construct; concentrations as in Table 2
[2] = biological target: ubiquitin (bovine, UniProt P0CG53 1-76, isopeptide-linked to UBE2D1); assay: crystal structure; TRIM25 RING domain (8 mg/ml) mixed with isopeptide-linked UBE2D1-Ub (10 mg/ml) at a 1:1 molar ratio; 100 mM Tris pH 8.5, 10% PEG 20,000, 18°C; 2.34 Å; conditions: both partners purified
[3] = biological target: the molecule itself; assay: SAXS; SEC in line with SAXS, SWING beamline at SOLEIL, SEC-3 300 Å Agilent column, 15°C; 2.5 mg/ml TRIM25 RBCC, 6 mg/ml TRIM32 RBCC injected

B1: TRIM32 RING/B-box2 (1–140) (domain or fragment, UniProt Q13049 1-140, looked up)
chain: MAAAAASHLNLDALREVLECPICMESFTEEQLRPKLLHCGHTICRQCLEKLLASSINGVRCPFCSKITRITSLTQLTDNLTVLKIIDTAGLSEAVGLLMCRSCGRRLPRQFCRSCGLVLCEPCREADHQPPGHCTLPVKE
stoichiometry N [1]: 2

B2: TRIM25 RING domain (1–82) (domain or fragment, UniProt Q14258 1-82, looked up)
chain: MAELCPLAEELSCSICLEPFKEPVTTPCGHNFCGSCLNETWAVQGSPYLCPQCRAVYQARPQLHKNTVLCNVVEQFLQADLA
binding result [2]: binds

B3: TRIM25 RBCC (1–433) (domain or fragment, UniProt Q14258 1-433, looked up)
chain: MAELCPLAEELSCSICLEPFKEPVTTPCGHNFCGSCLNETWAVQGSPYLCPQCRAVYQARPQLHKNTVLCNVVEQFLQADLAREPPADVWTPPARASAPSPNAQVACDHCLKEAAVKTCLVCMASFCQEHLQPHFDSPAFQDHPLQPPVRDLLRRKCSQHNRLREFFCPEHSECICHICLVEHKTCSPASLSQASADLEATLRHKLTVMYSQINGASRALDDVRNRQQDVRMTANRKVEQLQQEYTEMKALLDASETTSTRKIKEEEKRVNSKFDTIYQILLKKKSEIQTLKEEIEQSLTKRDEFEFLEKASKLRGISTKPVYIPEVELNHKLIKGIHQSTIDLKNELKQCIGRLQEPTPSSGDPGEHDPASTHKSTRPVKKVSKEEKKSKKPPPVPALPSKLPTFGAPEQLVDLKQAGLEAAAKATSSHPNS
stoichiometry N [3]: 2

B4: TRIM32 RBCC (1–354) (domain or fragment, UniProt Q13049 1-354, looked up)
chain: MAAAAASHLNLDALREVLECPICMESFTEEQLRPKLLHCGHTICRQCLEKLLASSINGVRCPFCSKITRITSLTQLTDNLTVLKIIDTAGLSEAVGLLMCRSCGRRLPRQFCRSCGLVLCEPCREADHQPPGHCTLPVKEAAEERRRDFGEKLTRLRELMGELQRRKAALEGVSKDLQARYKAVLQEYGHEERRVQDELARSRKFFTGSLAEVEKSNSQVVEEQSYLLNIAEVQAVSRCDYFLAKIKQADVALLEETADEEEPELTASLPRELTLQDVELLKVGHVGPLQIGQAVKKPRTVNVEDSWAMEATASAASTSVTFREMDMSPEEVVASPRASPAKQRGPEAASNIQQ
stoichiometry N [3]: 4
